Tests used:
HPLC glucosylation assay [1] = substrate: O=c1c(-c2ccc(O)cc2)coc2cc(O)cc(O)c12; test: HPLC glucosylation assay; type: biochemical, Pueraria montana; conditions: UDP-glucose co-substrate (5 mM in the activity assay), 50 mM Tris-HCl pH 8.0, 30°C
HPLC glucosylation assay [2] = substrate: O=c1c(-c2ccc(O)cc2)coc2cc(O)ccc12; test: HPLC glucosylation assay; type: biochemical, Pueraria montana; conditions: UDP-glucose co-substrate (5 mM in the activity assay), 50 mM Tris-HCl pH 8.0, 30°C

Protein | Km (HPLC glucosylation assay [1]) [µM] | kcat (HPLC glucosylation assay [1]) [s⁻¹] | kcat/Km (HPLC glucosylation assay [1]) [M⁻¹ s⁻¹] | Km (HPLC glucosylation assay [2]) [µM] | kcat (HPLC glucosylation assay [2]) [s⁻¹] | kcat/Km (HPLC glucosylation assay [2]) [M⁻¹ s⁻¹]
PlUGT57 (Pueraria montana var. lobata) (protein, full-length ORF (464-477 residues range for the three), GST fusion in pGEX-2T (given as C-terminal fusion with GST tag), E. coli BL21, glutathione Sepharose purified) MGSEAPIHVLMVSYPAQGHINPLLRLGKCLAAKGLFVTFTTSETAGKDMRKANNITDKSVIPVGDGFLKFDFFEDGMADDDVSKKKSLSDVSAQLELVGKQYVSQMIKKHAESHHPISCIINNPFVPWVCDVAAEHAIPSAMLWIQSSAVFTAYYSYFYKLVSFPSDADPYVDVQLSSVVLKHNEVPDFLHPFSPYRFLGTLILEQFKNLSKPFCVLVDSFEELEHDYIDYLSKFLDIRPVGPLFKTPIATGTSDIRGDFMKSDDCIEWLNSRAPASVVYISFGSIVYLPQEQVTEIAHGLLNSHVSFLWVLKPPPKGYGVPPHVLPDGFFEGTRDKGKVVQWSPQEEVLAHPSVACFLTHCGWNSSMEALTLGMPMLTFPAWGDQVTNAKFLVDVFGVGIKLGYGHAAKKVVSREEVKKCLLEATVGPKAEELKQISFKWKKAAEAAVAANGSSARNLDAFMKDIKKRGAVGVNEI | 7.68 ± 3.58 | 0.11 ± 0.01 | 13700 | 16.3 ± 1.87 | 0.034 ± 0.0009 | 2100
PlUGT4 (Pueraria montana var. lobata) (protein, full-length ORF (464-477 residues range for the three), GST fusion in pGEX-2T (given as C-terminal fusion with GST tag), E. coli BL21, glutathione Sepharose purified) MEKPHIAVVPSPGFTHLVPILEFSKRLLHLHPEFHITCFIPSVGSPPSSSKAYLQTLPPTITSIFLPPITLDDVPDPSILALQIELSVNLSLPYIKQELESLCSRAKVVALVVDVFANGALDFAKELNLLSYIYLPQSAMLLSLYFYSTKLDEILSSAFRDLTKPIEIPGCVPIHNKDLPIHFQNLSSIGYKGFLERSKRFHVPDGVFMNTFLELEPGAIRALQELVKGKPKVYPVGPIIQMGSVGHENRVECLTWLDKQQEPNSVLYVSFGSGGTLSQEQLNELAFGLELSGQKFLWVVRAPSSVATVGYFCAETKDPLEFLPHGFLERTKEQGLVVPSWAPQIQVLSHGATGGFLSHCGWNSVLESVVQGVPVITWPLFAEQSLNAAMLTDDLKVALRPKVNESGLAEREEIAKVVRGLMEGNEGMEIRKRMGLLKIAAANAIKEDGSSTKTLSEVATSSRGF | 87.3 ± 38.9 | 0.014 ± 0.0021 | 156 | 110.8 ± 36.4 | 0.0075 ± 0.0009 | 67.1

From article PMC6362427, “Identification of Three (Iso)flavonoid Glucosyltransferases From Pueraria lobata” (Frontiers in Plant Science, 2019)
